Common to all, as to experiment: competitive phage ELISA
(In general: An ELISA detects its analyte on a solid surface through an enzyme-linked reagent.)

In assay [1] the target is T1, IGF-I K27A (G1S-A70V background) displayed on phage (human; bacteriophage M13, not fully specified; Displayed monovalently on M13 phage as a C-terminal fusion to the gene III fragment, which is left out of the letters.).
T1 construct: monovalent M13 phage display; not shown: Display carrier: M13 gene III fragment (residues 249-406) and its junction
T1 chain: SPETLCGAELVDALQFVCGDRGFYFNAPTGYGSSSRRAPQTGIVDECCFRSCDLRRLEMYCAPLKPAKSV
In outline: (§1)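 Phage, normalized to a maximal ELISA signal of 0.2-0.4 per mutant, were premixed with threefold serial dilutions of soluble competitor in 0.5% Tween 20/PBS and incubated 1 h at room temperature on immobilized target.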

The target in assay [2] is T2, IGF-I M59A (G1S-A70V background) displayed on phage (human; bacteriophage M13).
T2 construct: monovalent M13 phage display; not shown: M13 gene III protein fragment (residues 249-406), the phage display carrier, and its junction to IGF-I
T2 chain: T1 chain with A27K, M59A
In outline:
as §1

Assay [3] has as its target T3, IGF-I I43A (G1S-A70V background) displayed on phage (human; bacteriophage M13).
T3 construct: monovalent M13 phage display
T3 chain: T1 chain with A27K, I43A
In a few lines: as §1

For assay [4], the target named is T4, IGF-I L10A (G1S-A70V background) displayed on phage (human; bacteriophage M13).
T4 construct: monovalent M13 phage display
T4 chain: T1 chain with L10A, A27K
In a few lines: as §1

In assay [5] the target is T5, IGF-I T29A (G1S-A70V background) displayed on phage (human; bacteriophage M13).
T5 construct: monovalent M13 phage display; not shown: M13 gene III fragment (residues 249-406, display partner) and the junction to it
T5 chain: T1 chain with A27K, T29A
In outline: as §1

Assay [6] deals with T6, IGF-I G32A (G1S-A70V background) displayed on phage (human; bacteriophage M13).
T6 construct: monovalent M13 phage display; not shown: M13 gene III fragment (residues 249-406, display partner) and the junction to it
T6 chain: T1 chain with A27K, G32A
In a few lines:
as §1

Assay [7] has as its target T7, IGF-I S34A (G1S-A70V background) displayed on phage (human; bacteriophage M13).
T7 construct: monovalent M13 phage display; not shown: M13 gene III fragment (residues 249-406, display partner) and the junction to it
T7 chain: T1 chain with A27K, S34A
In outline:
as §1

The target of assay [8] is T8, IGF-I V44A (G1S-A70V background) displayed on phage (human; bacteriophage M13).
T8 construct: monovalent M13 phage display
T8 chain: T1 chain with A27K, V44A
In a few lines:
as §1

Assay [9] concerns the target T9, IGF-I P63A (G1S-A70V background) displayed on phage (human; bacteriophage M13).
T9 construct: monovalent M13 phage display; not shown: M13 gene III protein fragment (residues 249-406), the phage display carrier, and its junction to IGF-I
T9 chain: T1 chain with A27K, P63A
In a few lines:
as §1

Assay [10] has as its target T10, IGF-I D45A (G1S-A70V background) displayed on phage (human; bacteriophage M13).
T10 construct: monovalent M13 phage display
T10 chain: T1 chain with A27K, D45A
In outline:
as §1

For assay [11], the target named is T11, wild-type IGF-I displayed on phage (human; bacteriophage M13, UniProt P69168 267-424).
T11 construct: range 249-406; monovalent M13 phage display; also called IGF-I WT; double-mutation restoring wild-type IGF-I
In a few lines:
as §1

In assay [12] the target is T12, IGF-I Y60A (G1S-A70V background) displayed on phage (human; bacteriophage M13).
T12 construct: monovalent M13 phage display; not shown: M13 gene III protein fragment (residues 249-406), the phage display carrier, and its junction to IGF-I
T12 chain: T1 chain with A27K, Y60A
In a few lines:
as §1

Assay [13] concerns the target T13, IGF-I D12A (G1S-A70V background) displayed on phage (human; bacteriophage M13).
T13 construct: monovalent M13 phage display
T13 chain: T1 chain with D12A, A27K
In outline: as §1

The target of assay [14] is T14, IGF-I R37A (G1S-A70V background) displayed on phage (human; bacteriophage M13).
T14 construct: monovalent M13 phage display
T14 chain: T1 chain with A27K, R37A
In a few lines: as §1

Assay [15] deals with T15, IGF-I Q15A (G1S-A70V background) displayed on phage (human; bacteriophage M13).
T15 construct: monovalent M13 phage display
T15 chain: T1 chain with Q15A, A27K
In a few lines: as §1

Where a chain is given by its changes, count along the chain named. Bounds are passed on as bounds.

B1: human IGFBP-1 (other, UniProt P08833 26-259, looked up)
chain: APWQCAPCSAEKLALCPPVSASCSEVTRSAGCGCCPMCALPLGAACGVATARCARGLSCRALPGEQQPLHALTRGQGACVQESDASAPHAAEAGSPESPESTEITEEELLDNFHLMAPSEEDHSILWDAISTYDGSKALHVTNIKKWKEPCRIELYRVVESLAKAQETSGEEISKFYLPNCNKNGFYHSRQCETSMDGEAGLCWCVYPWNGKRIPGSPEIRGDPNCQIYFNVQN
notes: secreted recombinant protein purified from conditioned medium
The term IC50 denotes the concentration at which inhibition is half-maximal. A higher IC50 goes with lower potency. With B1, the IC50 in [1] worked out at 12.8 nM; in [2], 13.1 nM; in assay [3], 31.3 nM; in assay [4] it was 311 nM; in assay [5], 7.3 nM; in [6], 10.9 nM. Moreover, the IC50 in assay [7] is 9.5 nM; in assay [8], 18.8 nM; in [9], over 1000 nM; in assay [10], 4.7 nM; in assay [11], 8.4 nM; in assay [12] it was 6.6 nM. For the same molecule, the IC50 in assay [13] was 4.3 nM; in assay [14], 12.3 nM; in [15] it was 13.9 nM.
